Measured values as given in patent US20240033331A1, “REDUCING IMMUNOGENICITY TO PEGLOTICASE” (Horizon Therapeutics USA, Inc., priority 2019, published 2024).
Read-outs that look alike come from different tables or passages of the source.

How the values were obtained:
[1] = test system: hyperuricemic patients (SUA >8 mg/dL) with symptomatic gout; conditions: cited from earlier work; for incidence of infusion-related reactions: pegloticase 8 mg
[2] = KXX exposure (AUC) by patient weight and age; format: in vivo, human
Excerpt: In some embodiments, heavier and/or younger patients may have a higher incidence of anti-KXX antibodies, or may have higher anti-KXX drug titers, than lighter and/or older patients. In other embodiments, lighter and/or older patients may have higher drug loading of KXX than heavier and/or younger patients. In some embodiments, lighter patients may have higher exposures of KXX than heavier patients. For example, in some embodiments, lighter patients may have greater than 2-fold exposure to KXX than heavier patients. In some embodiments, lower drug levels in a patient may result in anti-KXX antibodies. […] In other embodiments, older patients may have higher exposures of KXX than younger patients. For example, in some embodiments, older patients may have greater than 2-fold exposure to KXX than younger patients. […] Thus, in some embodiments, additional 8-mg doses of KXX may be beneficial for younger and/or heavier patients. In other embodiments, younger and/or heavier patients may benefit from one or more loading doses of 16 mg of KXX.

[3] = test system: patients receiving pegloticase; conditions: cited from earlier work; for patients maintaining a response to pegloticase: another study
[4] = diluted in infusion bags, cited from earlier work
[5] = test system: subjects with refractory gout; conditions: doses of 4 to 12 mg; from 11.1±0.6 mg/dL before; cited from earlier work
[6] = test system: patients treated with pegloticase; conditions: cited from earlier work
[7] = test system: patients; conditions: bi-weekly or every 4 weeks for up to 30 months; 149 patients; cited from earlier work
[8] = test system: patients treated with allopurinol; conditions: cited from earlier work
[9] = human, in vivo; cited from earlier work
[10] = test system: serum proteins; conditions: cited from earlier work
[11] = test system: rabbits; conditions: cited from earlier work
[12] = test system: rats; conditions: cited from earlier work
[13] = test system: lupus nephritis patients; conditions: in vivo; cited from earlier work

In the case of pegloticase, the “patients with IRs in whom loss of response (return to SUA >6 mg/dL) preceded the first IR” value ([1]; 20/21 patients) is listed as 95%, the “incidence of infusion-related reactions” value ([1]; biweekly dosing) is listed as 26% and the “incidence of infusion-related reactions” value ([1]; every-4-week dosing regimen) is listed as 40%. For the same molecule, the “mean area under the curve (AUC)” value ([2]; heavier patients) was “about 4.04 mg/L”, the “exposure, lighter versus heavier patients” value ([2]; human, in vivo) was “greater than 2 fold” and the “exposure, older versus younger patients” value ([2]; human, in vivo) was “greater than 2 fold”. For the same molecule, the “mean area under the curve (AUC)” value ([2]; lighter patients) was “about 8.92 mg/L”, the “mean area AUC” value ([2]; older patients) was “about 8.86 mg/L” and the “mean area AUC” value ([2]; younger patients) was “about 3.93 mg/L”. The “patients with titers exceeding 1:2430 who developed IRs” value ([3]; 31 of 52 patients) was 60%, the “patients maintaining a response to pegloticase” value ([3]; antibody titer exceeding 1:2430 at any time, 7 of 65) was 10.8% and the “patients maintaining a response to pegloticase” value ([3]; never had an antibody titer above 1:2430, 58/65) was 89.2%. For the same molecule, the “patients who developed high titer anti-pegloticase antibodies and subsequently lost response” value ([3]; one study, 69 of 169 patients) was 41%, the “time stable after dilution” value ([4]; 2° C. to 8° C.) was 4 h and the “time stable after dilution” value ([4]; room temperature (20° C. to 25° C.)) was 4 h. The “pUAc after dosing, mean±SD” value [5] was 1.0±0.5 mg/dL, the “other uncommon symptoms, share of patients” value ([6]; ecchymoses, sore throat, constipation, chest pain, vomiting) was “at least 5%” and the “most common adverse reactions, share of treated patients” value ([6]; gout flares, infusion reactions, nausea, contusion or ecchymosis, nasopharyngitis, constipation, chest pain, anaphylaxis, vomiting) was ≥ 5%. For the same molecule, the “anaphylaxis, frequency” value ([6]; human, in vivo) was 6.5%, the “infusion reactions, share of patients” value ([6]; pegloticase 8 mg every 2 weeks) was 26% and the long-term safety [7] was “No new safety signals were observed”.

In the case of `Oc1ncnc2[nH]ncc12` [allopurinol], the “patients developing allergic reactions” value [8] is listed as “Approximately 2%” and the severe hypersensitivity syndrome [8] is listed as “about 0.4%”.

In the case of `Sc1ncnc2nc[nH]c12` [mercaptopurine, 6-mercaptopurine], the “time after which not detectable in urine” value [9] is listed as 8 h and the “bound to serum proteins” value [10] is listed as 30%.

For `COc1c(C)c2c(c(O)c1C/C=C(\C)CCC(=O)OCCN1CCOCC1)C(=O)OC2` [MMF, 2-morpholinoethyl (E)-6-(1,3-dihydro4-hydroxy-6-methoxy-7-methyl-3-oxo-5-isobenzofuranyl)-4-methyl-4-hexenoate], the “time after which not detectable in urine” value [9] is listed as 8 h, the “bound to serum proteins” value [10] is listed as 30% and the teratogenicity [11] is listed as “teratogenic effects”. For the same molecule, the teratogenicity [12] was “teratogenic effects”.

In the case of “rituximab: biologic given with MMF and glucocorticoids in a lupus nephritis trial”, the “rate of serious infections” value [13] is given as 16.6 /100 patient-years.
